In the test the target is T1, histidine-rich glycoprotein (HRG), human plasma (human, UniProt P04196 19-525, glycosylated (a total of about 20-KDa glycosyl chains)).
T1 construct: histidine-rich glycoprotein, human plasma protein; 525 amino acids before processing and secretion; In the pull-down three bands (BP1, BP2, BP3) were all identified as HRG; BP2 and BP3 were estimated to be proteolytic products of BP1; also called plasma HRG; BP1; source: endogenous, healthy human plasma (pull-down)
T1 sequence (looked up): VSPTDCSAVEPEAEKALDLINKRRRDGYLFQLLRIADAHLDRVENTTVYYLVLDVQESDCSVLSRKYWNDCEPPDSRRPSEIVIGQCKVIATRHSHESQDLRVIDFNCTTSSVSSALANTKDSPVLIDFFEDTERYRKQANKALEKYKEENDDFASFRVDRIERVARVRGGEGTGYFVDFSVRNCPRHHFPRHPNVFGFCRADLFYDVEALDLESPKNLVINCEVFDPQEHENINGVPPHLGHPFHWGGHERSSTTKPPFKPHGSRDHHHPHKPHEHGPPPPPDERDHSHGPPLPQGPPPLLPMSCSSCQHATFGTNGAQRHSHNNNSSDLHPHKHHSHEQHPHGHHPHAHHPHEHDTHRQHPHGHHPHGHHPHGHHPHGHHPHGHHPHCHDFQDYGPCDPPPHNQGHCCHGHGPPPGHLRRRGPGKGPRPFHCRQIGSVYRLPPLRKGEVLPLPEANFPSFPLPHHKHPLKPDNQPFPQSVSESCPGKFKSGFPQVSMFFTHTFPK
Briefly: ELISA; 96-well plate coated with purified HRG (100 µg/mL); blocked with Blockmaster DB1130; biotinylated S100A8/A9 at different concentrations; HRP-streptavidin, TMB; background of wells without HRG deducted. The following applies: both partners purified. In general terms: In an ELISA, binding on a coated surface is turned into a signal by an enzyme label.

B1: human recombinant S100A8/A9 heterodimer (complex)
chain 1: MLTELEKALNSIIDVYHKYSLIKGNFHAVYRDDLKKLLETECPQYIRKKGADVWFKELDINTDGAVNFQEFLILVIKMGVAAHKKSHEESHKE
chain 2: MTCKMSQLERNIETIINTFHQYSVKLGHPDTLNQGEFKELVRKDLQNFLKKENKNEKVIEHIMEDLDTNADKQLSFEEFIMLMARLTWASHEKMHEGDEGPGHHHKPGLGEGTP
modifications: biotinylated in the ELISA (chain and site not stated) | biotinylated in the ELISA (chain and site not stated)
notes: S100A8 (Calgranulin A), human; S100A9 (Calgranulin B), human; Biotinylated in the ELISA; no biotin is mentioned for the cell assays; also called recombinant human S100A8/A9 heterodimer complex; biotinylated human recombinant S100A8/A9 protein; source: recombinant, highly purified, prepared as described previously [43]
Take B1: the binding result was “binds”.

These data come from PMC9499646, “Histidine-Rich Glycoprotein Suppresses the S100A8/A9-Mediated Organotropic Metastasis of Melanoma Cells” (International Journal of Molecular Sciences, 2022).
